According to patent US20110195911A1, “SYNTHETIC ANALOGS OF THE JUXTAMEMBRANE DOMAIN OF IGF1R AND USES THEREOF” (THE UNITED STATES OF AMERICA,AS REPRESENTED BY THE …, priority 2008, published 2011):
The star is where a group is joined. Palmitoyl = CCCCCCCCCCCCCCCC(=O)*

B1: peptide 7 (Pal-HRKRNNSRLGNGVLYAS-NH2) (peptide)
peptide: Palmitoyl-HRKRNNSRLGNGVLYAS-NH2
SMILES: CCCCCCCCCCCCCCCC(=O)N[C@@H](Cc1c[nH]cn1)C(=O)N[C@@H](CCCNC(=N)N)C(=O)N[C@@H](CCCCN)C(=O)N[C@@H](CCCNC(=N)N)C(=O)N[C@@H](CC(N)=O)C(=O)N[C@@H](CC(N)=O)C(=O)N[C@@H](CO)C(=O)N[C@@H](CCCNC(=N)N)C(=O)N[C@@H](CC(C)C)C(=O)NCC(=O)N[C@@H](CC(N)=O)C(=O)NCC(=O)N[C@H](C(=O)N[C@@H](CC(C)C)C(=O)N[C@@H](Cc1ccc(O)cc1)C(=O)N[C@@H](C)C(=O)N[C@@H](CO)C(N)=O)C(C)C
B2: peptide 6 (Pal-VHRKRNNSRLGNGVLYASV-NH2) (peptide)
peptide: Palmitoyl-VHRKRNNSRLGNGVLYASV-NH2
SMILES: CCCCCCCCCCCCCCCC(=O)N[C@H](C(=O)N[C@@H](Cc1c[nH]cn1)C(=O)N[C@@H](CCCNC(=N)N)C(=O)N[C@@H](CCCCN)C(=O)N[C@@H](CCCNC(=N)N)C(=O)N[C@@H](CC(N)=O)C(=O)N[C@@H](CC(N)=O)C(=O)N[C@@H](CO)C(=O)N[C@@H](CCCNC(=N)N)C(=O)N[C@@H](CC(C)C)C(=O)NCC(=O)N[C@@H](CC(N)=O)C(=O)NCC(=O)N[C@H](C(=O)N[C@@H](CC(C)C)C(=O)N[C@@H](Cc1ccc(O)cc1)C(=O)N[C@@H](C)C(=O)N[C@@H](CO)C(=O)N[C@H](C(N)=O)C(C)C)C(C)C)C(C)C
B3: peptide 8 (Pal-HRKRNNSRLGNGVLYA-NH2) (peptide)
peptide: Palmitoyl-HRKRNNSRLGNGVLYA-NH2
SMILES: CCCCCCCCCCCCCCCC(=O)N[C@@H](Cc1c[nH]cn1)C(=O)N[C@@H](CCCNC(=N)N)C(=O)N[C@@H](CCCCN)C(=O)N[C@@H](CCCNC(=N)N)C(=O)N[C@@H](CC(N)=O)C(=O)N[C@@H](CC(N)=O)C(=O)N[C@@H](CO)C(=O)N[C@@H](CCCNC(=N)N)C(=O)N[C@@H](CC(C)C)C(=O)NCC(=O)N[C@@H](CC(N)=O)C(=O)NCC(=O)N[C@H](C(=O)N[C@@H](CC(C)C)C(=O)N[C@@H](Cc1ccc(O)cc1)C(=O)N[C@@H](C)C(N)=O)C(C)C
B4: peptide 10 (Pal-HRKRNNSRLGNGVL-NH2) (peptide)
peptide: Palmitoyl-HRKRNNSRLGNGVL-NH2
SMILES: CCCCCCCCCCCCCCCC(=O)N[C@@H](Cc1c[nH]cn1)C(=O)N[C@@H](CCCNC(=N)N)C(=O)N[C@@H](CCCCN)C(=O)N[C@@H](CCCNC(=N)N)C(=O)N[C@@H](CC(N)=O)C(=O)N[C@@H](CC(N)=O)C(=O)N[C@@H](CO)C(=O)N[C@@H](CCCNC(=N)N)C(=O)N[C@@H](CC(C)C)C(=O)NCC(=O)N[C@@H](CC(N)=O)C(=O)NCC(=O)N[C@H](C(=O)N[C@@H](CC(C)C)C(N)=O)C(C)C
B5: peptide 9 (Pal-HRKRNNSRLGNGVLY-NH2) (peptide)
peptide: Palmitoyl-HRKRNNSRLGNGVLY-NH2
SMILES: CCCCCCCCCCCCCCCC(=O)N[C@@H](Cc1c[nH]cn1)C(=O)N[C@@H](CCCNC(=N)N)C(=O)N[C@@H](CCCCN)C(=O)N[C@@H](CCCNC(=N)N)C(=O)N[C@@H](CC(N)=O)C(=O)N[C@@H](CC(N)=O)C(=O)N[C@@H](CO)C(=O)N[C@@H](CCCNC(=N)N)C(=O)N[C@@H](CC(C)C)C(=O)NCC(=O)N[C@@H](CC(N)=O)C(=O)NCC(=O)N[C@H](C(=O)N[C@@H](CC(C)C)C(=O)N[C@@H](Cc1ccc(O)cc1)C(N)=O)C(C)C

Biological target: Insulin-like growth factor 1 receptor (IGF1R) (UniProt P08069 31-1367, limits assumed)
Sequence (P08069 31-1367 limits assumed): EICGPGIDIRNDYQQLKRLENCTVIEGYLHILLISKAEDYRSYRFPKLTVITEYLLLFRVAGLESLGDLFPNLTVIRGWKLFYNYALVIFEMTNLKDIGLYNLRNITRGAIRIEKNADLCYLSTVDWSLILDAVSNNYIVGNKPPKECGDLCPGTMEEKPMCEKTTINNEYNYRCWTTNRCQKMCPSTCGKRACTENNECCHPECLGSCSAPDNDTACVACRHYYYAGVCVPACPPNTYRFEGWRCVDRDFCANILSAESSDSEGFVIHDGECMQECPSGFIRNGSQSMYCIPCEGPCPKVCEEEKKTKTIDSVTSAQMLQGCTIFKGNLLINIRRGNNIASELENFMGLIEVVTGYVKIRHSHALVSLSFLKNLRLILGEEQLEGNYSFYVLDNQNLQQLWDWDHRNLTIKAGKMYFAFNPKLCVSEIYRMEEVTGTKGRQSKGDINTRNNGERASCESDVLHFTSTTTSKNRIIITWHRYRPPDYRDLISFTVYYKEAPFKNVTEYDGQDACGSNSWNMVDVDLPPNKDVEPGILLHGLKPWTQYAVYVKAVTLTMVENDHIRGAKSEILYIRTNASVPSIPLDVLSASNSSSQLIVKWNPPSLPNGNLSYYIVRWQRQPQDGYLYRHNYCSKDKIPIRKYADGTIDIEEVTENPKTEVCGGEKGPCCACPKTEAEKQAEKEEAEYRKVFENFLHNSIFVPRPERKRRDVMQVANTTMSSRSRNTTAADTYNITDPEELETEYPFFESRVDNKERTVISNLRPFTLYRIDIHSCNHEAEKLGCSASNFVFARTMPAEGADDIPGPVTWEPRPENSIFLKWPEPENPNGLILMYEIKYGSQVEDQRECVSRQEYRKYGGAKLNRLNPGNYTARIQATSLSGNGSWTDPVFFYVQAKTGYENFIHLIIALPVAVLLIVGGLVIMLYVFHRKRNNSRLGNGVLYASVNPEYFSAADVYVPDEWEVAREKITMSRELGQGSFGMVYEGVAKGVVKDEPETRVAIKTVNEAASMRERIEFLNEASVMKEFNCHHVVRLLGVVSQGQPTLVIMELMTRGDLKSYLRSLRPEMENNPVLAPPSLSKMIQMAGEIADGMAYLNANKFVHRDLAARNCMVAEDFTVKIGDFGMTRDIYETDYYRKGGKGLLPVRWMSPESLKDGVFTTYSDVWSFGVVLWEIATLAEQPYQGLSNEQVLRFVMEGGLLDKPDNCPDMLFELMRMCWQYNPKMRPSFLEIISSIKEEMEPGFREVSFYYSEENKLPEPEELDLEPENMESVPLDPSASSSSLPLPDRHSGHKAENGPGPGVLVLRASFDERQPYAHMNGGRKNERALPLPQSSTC
Test: cell-based or functional assay

Binder | GI50 (µM), MTT assay, MCF-7 cells [µM] | TGI (µM), MTT assay, MCF-7 cells [µM]
B1 | 1.45 | 4.1
B2 | 0.25 | 1.05
B3 | 1.4 | > 5
B4 | 1.8 | > 5
B5 | 1.65 | > 5
